Biological target: GST-Kv4.3 NT (human)
Assay: pull-down

Sequence of GST-Kv4.3 NT (human) (Q9UK17 whole entry): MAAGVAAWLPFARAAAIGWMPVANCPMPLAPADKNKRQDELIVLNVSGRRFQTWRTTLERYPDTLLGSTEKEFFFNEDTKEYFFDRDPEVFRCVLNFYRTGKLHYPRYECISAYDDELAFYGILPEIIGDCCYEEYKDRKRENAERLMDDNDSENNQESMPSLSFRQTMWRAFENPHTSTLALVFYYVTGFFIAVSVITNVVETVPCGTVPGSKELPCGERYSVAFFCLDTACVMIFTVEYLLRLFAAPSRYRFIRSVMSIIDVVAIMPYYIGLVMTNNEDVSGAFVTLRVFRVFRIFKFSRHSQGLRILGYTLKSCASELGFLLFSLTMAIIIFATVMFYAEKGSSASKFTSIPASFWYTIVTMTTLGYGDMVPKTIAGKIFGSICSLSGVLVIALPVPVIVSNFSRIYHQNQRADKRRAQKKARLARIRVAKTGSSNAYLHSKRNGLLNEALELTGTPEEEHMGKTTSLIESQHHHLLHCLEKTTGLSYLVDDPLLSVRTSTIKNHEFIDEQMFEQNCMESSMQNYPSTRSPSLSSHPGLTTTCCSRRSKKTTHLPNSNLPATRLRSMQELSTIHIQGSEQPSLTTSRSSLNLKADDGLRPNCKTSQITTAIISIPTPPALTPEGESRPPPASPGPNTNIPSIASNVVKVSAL

- fold binding activity relative to DPP6-T: > 2 fold
Substance: DPP6-T p.H332R variant, in vitro translated and radiolabeled (natural protein)

Source: paper PMC4599408
